Key:
[1] = molecular target: T1, STK17B-Serine/threonine-protein kinase 17B (human, UniProt O94768 1-372); experiment: ProtoArray, GST-treated control array;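 note: human protein microarray (about 9500 recombinant proteins) incubated overnight with GST alone plus SAM cofactor as the negative control for G9a SET domain methylation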
T1 sequence (looked up): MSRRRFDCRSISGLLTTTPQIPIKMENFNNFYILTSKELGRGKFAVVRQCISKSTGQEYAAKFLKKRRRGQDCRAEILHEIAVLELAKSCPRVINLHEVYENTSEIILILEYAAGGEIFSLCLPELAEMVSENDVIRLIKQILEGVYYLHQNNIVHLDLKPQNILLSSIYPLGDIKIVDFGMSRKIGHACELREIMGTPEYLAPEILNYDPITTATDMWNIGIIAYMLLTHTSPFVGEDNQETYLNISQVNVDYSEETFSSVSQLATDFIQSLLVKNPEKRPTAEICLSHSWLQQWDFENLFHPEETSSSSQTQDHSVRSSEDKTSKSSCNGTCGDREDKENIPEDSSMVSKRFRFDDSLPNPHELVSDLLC

[2] = molecular target: ARL6IP1-ADP-ribosylation factor-like 6 interacting protein 1 (ARL6IP1) (human, UniProt Q15041 1-203, limits assumed); experiment: ProtoArray, GST-treated control array;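 note: human protein microarray (about 9500 recombinant proteins) incubated overnight with GST alone plus SAM cofactor as the negative control for G9a SET domain methylation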
Chain of ARL6IP1-ADP-ribosylation factor-like 6 interacting protein 1 (ARL6IP1) (Q15041 whole entry, the tested form may be a part): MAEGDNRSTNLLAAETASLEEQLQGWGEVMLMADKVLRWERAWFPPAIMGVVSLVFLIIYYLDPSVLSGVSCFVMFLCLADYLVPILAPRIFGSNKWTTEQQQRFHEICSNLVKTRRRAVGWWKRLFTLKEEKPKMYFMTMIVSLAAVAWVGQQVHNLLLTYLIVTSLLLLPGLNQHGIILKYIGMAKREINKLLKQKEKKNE

[3] = molecular target: MGC4473-hypothetical protein MGC4473 (MGC4473) (human); experiment: ProtoArray, GST-treated control array;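 note: human protein microarray (about 9500 recombinant proteins) incubated overnight with GST alone plus SAM cofactor as the negative control for G9a SET domain methylation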
[4] = molecular target: T2, ZBP1-Z-DNA binding protein 1 (ZBP1) (human, UniProt Q9H171 1-429, limits assumed); experiment: ProtoArray, GST-treated control array;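 note: human protein microarray (about 9500 recombinant proteins) incubated overnight with GST alone plus SAM cofactor as the negative control for G9a SET domain methylation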
T2 sequence (looked up): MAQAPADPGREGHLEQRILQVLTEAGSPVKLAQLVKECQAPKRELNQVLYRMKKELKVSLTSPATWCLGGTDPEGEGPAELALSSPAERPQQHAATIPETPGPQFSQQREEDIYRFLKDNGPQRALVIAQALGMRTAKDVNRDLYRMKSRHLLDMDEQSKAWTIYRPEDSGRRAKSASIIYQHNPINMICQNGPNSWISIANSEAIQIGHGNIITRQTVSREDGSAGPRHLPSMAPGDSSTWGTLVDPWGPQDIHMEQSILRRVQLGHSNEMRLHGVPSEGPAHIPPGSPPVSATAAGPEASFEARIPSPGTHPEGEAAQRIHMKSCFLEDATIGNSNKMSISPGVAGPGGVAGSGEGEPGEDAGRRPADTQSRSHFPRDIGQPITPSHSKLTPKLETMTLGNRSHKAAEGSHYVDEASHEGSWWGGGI

[5] = molecular target: T3, PTCD2-pentatricopeptide repeat domain 2 (PTCD2) (human, UniProt Q8WV60 1-388, limits assumed); experiment: ProtoArray, GST-treated control array
T3 sequence (looked up): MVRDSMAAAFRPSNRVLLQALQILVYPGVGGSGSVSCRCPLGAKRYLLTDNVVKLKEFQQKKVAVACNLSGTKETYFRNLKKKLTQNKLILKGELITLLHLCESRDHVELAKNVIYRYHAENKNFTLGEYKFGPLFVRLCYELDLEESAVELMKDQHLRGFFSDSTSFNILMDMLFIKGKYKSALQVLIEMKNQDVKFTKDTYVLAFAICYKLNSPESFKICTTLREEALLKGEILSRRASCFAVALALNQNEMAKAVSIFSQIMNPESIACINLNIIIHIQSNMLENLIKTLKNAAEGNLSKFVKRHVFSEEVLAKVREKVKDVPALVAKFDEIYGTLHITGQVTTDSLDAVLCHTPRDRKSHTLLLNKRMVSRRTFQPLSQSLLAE

[6] = molecular target: CDC2-cell division cycle 2, G1 to S and G2 to M (CDC2), transcript variant 1 (human, UniProt P06493 1-297); experiment: ProtoArray, GST-treated control array
Chain of CDC2-cell division cycle 2, G1 to S and G2 to M (CDC2), transcript variant 1 (P06493 whole entry, change not shown): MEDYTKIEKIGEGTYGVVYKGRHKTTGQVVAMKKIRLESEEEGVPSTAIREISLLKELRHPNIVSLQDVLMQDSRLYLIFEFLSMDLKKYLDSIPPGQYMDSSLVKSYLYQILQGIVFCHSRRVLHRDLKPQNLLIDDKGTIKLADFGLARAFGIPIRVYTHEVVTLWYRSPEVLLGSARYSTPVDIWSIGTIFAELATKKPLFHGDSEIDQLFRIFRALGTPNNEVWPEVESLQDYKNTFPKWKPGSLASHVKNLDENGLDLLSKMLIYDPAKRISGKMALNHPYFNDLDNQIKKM

[7] = molecular target: LOC400500, G9a-methylated (human); experiment: ProtoArray, G9a array SNR minus GST array SNR
Protocol: (§1) Briefly, a ProtoArray (Invitrogen, version 5.0) was incubated overnight with 50 μg of GST or recombinant GSTtagged G9a SET domain and the cofactor SAM.
(§2) Arrays were analyzed using GenePix Pro 6.1 software (Molecular Devices) and feature values were assigned to proteins using the array list provided by Invitrogen. We designated the following criteria for “hits”: GST array signal-to-noise ratio (SNR) less than or equal to 1.5, G9a array SNR greater than or equal to 10, and a difference between the G9a array SNR and the GST array SNR of greater than or equal to 12. Hits were individually visually validated. Proteins were removed from the list of potential substrates if irregular array features appeared to interfere with the array spots or SNR calculations.
(§3) Protein arrays bearing almost 9500 recombinant human proteins were methylated using GST-tagged recombinant G9a SET domain or GST alone as a control as shown in FIG. 4. […] Results were filtered for proteins scoring a GST array signal-to-noise ratio (SNR) less than or equal to 1.5, a G9a array SNR greater to or equal to 10, and a difference between the G9a and GST SNRs of greater than or equal to 12. Subsequent proteins were individually inspected for irregular array features.

[8] = molecular target: T4, cDNA clone IMAGE:4623222 product, G9a-methylated (human); experiment: ProtoArray, G9a array SNR minus GST array SNR
Protocol: as §1, §2, §3

[9] = molecular target: MGC4473, G9a-methylated (human); experiment: ProtoArray, G9a array SNR minus GST array SNR
Protocol: as §1, §2, §3

[10] = molecular target: LOC145788, G9a-methylated (human); experiment: ProtoArray, G9a array SNR minus GST array SNR
Protocol: as §1, §2, §3

[11] = molecular target: LOC400500, G9a-methylated (human); experiment: ProtoArray methylated with G9a SET domain
Protocol: as §1, §2, §3

[12] = molecular target: T4, cDNA clone IMAGE:4623222 product, …; experiment: ProtoArray methylated with G9a SET domain
Protocol: as §1, §2, §3

[13] = molecular target: MGC4473, G9a-methylated (human); experiment: ProtoArray methylated with G9a SET domain
Protocol: as §1, §2, §3

[14] = molecular target: LOC145788, G9a-methylated (human); experiment: ProtoArray methylated with G9a SET domain
Protocol: as §1, §2, §3

[15] = molecular target: T5, GAL-galanin prepropeptide (GAL) (human, UniProt P22466 1-123, limits assumed); experiment: ProtoArray, GST-treated control array
T5 sequence (looked up): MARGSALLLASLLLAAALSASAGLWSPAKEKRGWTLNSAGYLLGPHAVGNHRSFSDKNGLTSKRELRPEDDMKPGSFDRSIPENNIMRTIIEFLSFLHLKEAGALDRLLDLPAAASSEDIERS
Protocol: as §1, §2

[16] = molecular target: T6, GHRL-ghrelin/obestatin preprohormone (GHRL) (human, UniProt Q9UBU3 1-117, limits assumed); experiment: ProtoArray, GST-treated control array
T6 sequence (looked up): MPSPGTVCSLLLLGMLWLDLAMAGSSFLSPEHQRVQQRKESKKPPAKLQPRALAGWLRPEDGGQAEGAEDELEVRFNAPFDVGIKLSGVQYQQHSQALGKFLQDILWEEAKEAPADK
Protocol: as §1, §2

B1: 3× Flag-3×MBT (designed binder)
chain: EEWSSSQPATGEKKECWSWESYLEEQKAITAPVSLFQDSQAVTHNKNGFKLGMKLEGIDPQHPSMYFILTVAEVCGYRLRLHFDGYSECHDFWVNANSPDIHPAGWFEKTGHKLQPPKGYKEEEFSWSQYLRSTRAQAAPKHLFVSQSHSPPPLGFQVGMKLEAVDRMNPSLVCVASVTDVVDSRFLVHFDNWDDTYDYWCDPSSPYIHPVGWCQKQGKPLTPPQDYPDPDNFCWEKYLEETGASAVPTWAFKVRPPHSFLVNMKLEAVDRRNPALIRVASVEDVEDHRIKIHFDGWSHGYDFWIDADHPDIHPAGWCSKTGHPLQPPLGPREPSSASPGG
notes: also called Flag-tagged 3×MBT; 3xFlag-3xMBT; not shown: made by PreScission cleavage of GST-3× Flag-3×MBT
- GST Average SNR [1]: 0.575
- GST Average SNR [2]: 1.05
- GST Average SNR [3]: 0.0125
- GST Average SNR [4]: 0.628
- GST Average SNR [5]: 0.679
- GST Average SNR [6]: -0.696
- G9a-GST [7]: 29.1
- G9a-GST [8]: 17.8
- G9a-GST [9]: 21.7
- G9a-GST [10]: 13.8
- G9a Average SNR [11]: 29
- G9a Average SNR [12]: 18.8
- G9a Average SNR [13]: 21.7
- G9a Average SNR [14]: 14.1
- binding result [15]: no binding (tested: GST array SNR <= 1.5)
- binding result [16]: no binding (tested: GST array SNR <= 1.5)
